Like-named read-outs stand apart in the source and are kept apart here. Where a SMILES comes first, the peptide text is derived from it. [ ]: non-standard residue; d: D form. The star is where a group is joined. ξ: configuration not given here. Dolaproine = CO[C@@H]([C@@H]1CCCN1)[C@@H](C)C(=O)O; Dil = CC[C@H](C)[C@H](NC)[C@@H](CC(=O)O)OC; NMe2Val = CC(C)[C@@H](C(=O)*)N(C)C; ξNMe2Val = CC(C)C(C(=O)*)N(C)C; NMeV = CN[CH](C(=O)O)C(C)C; Ava = NCCCCC(=O)O
Legend:
SKBr3 cells = assay: Cell killing assay (MTS), SKBr3 cells; assay type: cell-based, human
Method: (§1) SKBr3, human breast cancer cell line, high HER2 expression levels, up to 1,000,000 receptors per cell [Lazar G A, et al Proc Natl Acad Sci USA. […] When confluency was 70-80%, cells were washed with PBS (2×10 ml) and incubated with trypsin for 5-7 min. Complete media was added and the cells were resuspended by pipetting. The cells were recovered by centrifugation (2 min, 2000 rpm), the supernatant was discarded, and the cells were resuspended in complete DMEM (5 ml). The cells were then counted using a haemocytometer and diluted accordingly. They were plated at 4500 cells/well (200 μl) using attachment factor and incubated overnight at 37° C., 5% CO2 in a humidified atmosphere. U87 is a non-HER2 expressing glioblastoma cell line and was grown in a similar way, plated at 1000 cells/well.
(§2) […] Cell viability was measured using the Promega Aqueous Cell-titre-96™ aqueous one solution cell proliferation kit according to manufacturer's instructions. Briefly, the media was removed and 100 μl of complete phenol red free media, pre-combined with MTS reagent, was added to the cells (20 μl of reagent per 100 μl of media). The plates were read on an ELISA plate reader at 490 nm after a 2 hr incubation in the dark (5% CO2, 37° C.).
(§3) The data (absorption units) were converted to % cell survival by using the untreated controls as the 100% cell survival and the Triton X-100 controls as the 100% cell death. The average absorption value for the latter was subtracted from all the rest of the data in order to get a suitable baseline. The averages were converted to survival and standard error values were obtained for each n value (as a % cell survival). […] Experiments were repeated at least 3 times for each compound tested and a set or an average of the data was plotted and fitted to obtain a dose response curve.
(§4) The cells were recovered by centrifugation (2 min, 2000 rpm), the supernatant was discarded, and the cells were resuspended in complete McCoy's 5A (5 ml). The cells were then counted using a haemocytometer and diluted accordingly. They were plated at 5000 cells/well (200 μl) using attachment factor and incubated overnight at 37° C., 5% CO2 in a humidified atmosphere. U87 is a non-HER2 expressing glioblastoma cell line [Zitron I M et al (2013) BMC Cancer 13:83] and was grown in a similar way, plated at 1000 cells/well (using DMEM media). BT474 is a HER2 expressing breast cancer cell line [Brockhoff G et al (2007) Cell Prolif 40:488-507] and was grown in a similar way, plated at 7500 cells/well (using RPMI media). NCI-N87 is a HER2 expressing gastric cancer cell line [Yamashita-Kashima Y et al (2013) Oncol. Rep 30:1087-93] and was grown in a similar way, plated at 7500 cells/well (using RPMI media).
as §2, with “kit (MTS reagent)” for “kit”
(§5) The data (absorption units) were converted to % cell survival by using the untreated controls as the 100% cell survival and the Triton X-100 controls as the 100% cell death. The average absorption value for the latter was subtracted from all the rest of the data in order to get a suitable baseline. The averages were converted to survival and standard error values were obtained for each n value (as a % cell survival).

U87 cells = assay: Cell killing assay (MTS), U87 cells; assay type: cell-based
Method: as §1
(§6) The cells were exposed to the various ADCs diluted in complete media for 96 hours at 37° C., 5% CO2 in a humidified atmosphere. Cell viability was measured using the Promega Aqueous Cell-titre-96™ aqueous one solution cell proliferation kit according to manufacturer's instructions. Briefly, the media was removed and 100 μl of complete phenol red free media, pre-combined with MTS reagent, was added to the cells (20 μl of reagent per 100 μl of media). The plates were read on an ELISA plate reader at 490 nm after a 2 hr incubation in the dark (5% CO2, 37° C.).
as §3, §4
as §6, with “kit (MTS reagent)” for “kit”
as §5

BT474 cells = assay: Cell killing assay (MTS), BT474 cells; assay type: cell-based, human
Method: as §4
as §6, with “kit (MTS reagent)” for “kit”
as §3, with “dose-response” for “dose response”

[1] = SKBr3 Cells (HER2+++), 96 hours, Table 47
[2] = SKBr3 Cells (HER2+++), 96 hours, Table 47, read-out: IC50
[3] = BT474 Cells (HER2++), 96 hours, Table 47
[4] = BT474 Cells (HER2++), 96 hours, Table 47, read-out: IC50
[5] = SKBr3 Cells (HER2 +++), 96 hours, Table 50
[6] = U87 Cells (HER2−), 96 hours, Table 50
[7] = U87 Cells (HER2−), 96 hours, Table 50, read-out: IC50

CC(C)C(NC(=O)C(C(C)C)N(C)C)C(=O)N(C)C(C(=O)N1CCCC1C(=O)N1CCCC1C(=O)NCCCCC(=O)O)C(C)C (centres unmarked) [Free P5C5 (acid) drug, P5C5] (ξNMe2Val-V[NMeV]PP[Ava]-OH; configuration not given here)
IC50 (SKBr3 cells; Homo sapiens, SK-BR-3, 96 h, read-out: IC50 nM SKBr3 Cells (HER2+++)): 2200 ± 400 nM
IC50 (U87 cells; Homo sapiens, U-87 MG, 96 h, read-out: IC50 nM U87 Cells (HER2−)): 7300 ± 900 nM

CC[C@H](C)[C@@H]([C@@H](CC(=O)N1CCC[C@H]1[C@H](OC)[C@@H](C)C(=O)N[C@@H](Cc1ccccc1)C(=O)O)OC)N(C)C(=O)[C@@H](NC(=O)[C@H](C(C)C)N(C)C)C(C)C [Free drug Auristatin F] (NMe2Val-V[Dil][Dolaproine]F-OH)
IC50 (SKBr3 cells; Homo sapiens, SK-BR-3, 96 h, read-out: IC50 pM): > 5.5 nM
IC50 (BT474 cells; Homo sapiens, BT-474, 96 h, read-out: IC50 pM): > 2500 pM
IC50 (U87 cells; Homo sapiens, U-87 MG, 96 h, read-out: IC50 pM): > 12.5 nM

COc1cc2cc(c1Cl)N(C)C(=O)C[C@H](OC(=O)[C@H](C)N(C)C(=O)CCS)[C@]1(C)O[C@H]1[C@H](C)[C@@H]1C[C@@](O)(NC(=O)O1)[C@H](OC)/C=C/C=C(\C)C2 [Free drug DM1]
IC50 (SKBr3 cells; Homo sapiens, SK-BR-3, 96 h, read-out: IC50 nM): 47.6 nM
IC50 (U87 cells; Homo sapiens, U-87 MG, 96 h, read-out: IC50 nM): 50.7 nM

B1: scFv (TCT)-P5C5, DAR = 12 (conjugate)
scFv: SGSGGSGQVQLVQSGAEVKKPGESLKISCKGSGYSFTSYWIAWVRQMPGKGLEYMGLIYPGDSDTKYSPSFQGQVTISVDKSVSTAYLQWSSLKPSDSAVYFCARHDVGYCSSSNCAAWPEYFQHWGQGTLVTVSSGGGGSGGGGSGGGGSQSVLTQPPSVSAAPGQKVTISCSGSSSNIGNNYVSWYQQLPGTAPKLLIYGHTNRPAGVPDRFSGSKSGTSASLAISGFRSEDEADYYCAAWDDSLSGWVFGGGTKLTVLMASMTGGQQMG
IC50 μg/ml SKBr3 Cells (HER2+++) (SKBr3 cells; 96 hours exposure): 5.01 ± 1.9 µg/mL
IC50 (SKBr3 cells; 96 hours exposure, read-out: IC50 nM SKBr3 Cells (HER2+++)): 179 ± 68 nM
IC50 μg/ml U87 Cells (HER2−) (U87 cells; 96 hours exposure): 100 µg/mL
IC50 (U87 cells; 96 hours exposure, read-out: IC50 nM U87 Cells (HER2−)): 3570 nM

B2: scFv (TCT)-MMAF-C5, DAR 6.6 (conjugate)
scFv: B1 scFv
IC50 μg/ml (SKBr3 cells; SKBr3 Cells (HER2+++), 96 hours, Table 46): 0.087 µg/mL
IC50 (SKBr3 cells; SKBr3 Cells (HER2+++), 96 hours, Table 46, read-out: IC50): 0.0031 nM
IC50 μg/ml (BT474 cells; BT474 Cells (HER2++), 96 hours, Table 46): 0.2 µg/mL
IC50 (BT474 cells; BT474 Cells (HER2++), 96 hours, Table 46, read-out: IC50): 7.14 pM
IC50 μg/ml (U87 cells; U87 Cells (HER2−), 96 hours, Table 46): >5 µg/mL

B3: scFv (TCT)-MMAF DAR 8 (conjugate)
scFv: B1 scFv
IC50 μg/ml (SKBr3 cells; [1]): 0.0053 µg/mL
IC50 (SKBr3 cells; [2]): 0.189 nM
IC50 μg/ml (BT474 cells; [3]): 0.02 µg/mL
IC50 (BT474 cells; [4]): 714 pM

B4: scFv (TCT1067)-MMAF DAR 8.7 (conjugate)
scFv: SGSGGSGQVQLVQSGAEVKKPGESLKISCKGSGYSFTSYWIAWVRQMPGKGLEYMGLIYPGDSDTKYSPSFQGQVTISVDKSVSTAYLQWSSLKPSDSAVYFCARHDVGYCTDRTCAAWPEWLGVWGQGTLVTVSSGGGGSGGGGSGGGGSQSVLTQPPSVSAAPGQKVTISCSGSSSNIGNNYVSWYQQLPGTAPKLLIYGHTNRPAGVPDRFSGSKSGTSASLAISGFRSEDEADYYCASWDYTLSGWVFGGGTKLTVLMASMTGGQQMG
IC50 μg/ml (SKBr3 cells; [1]): 0.00091 µg/mL
IC50 (SKBr3 cells; [2]): 0.0325 nM
IC50 μg/ml (BT474 cells; [3]): 0.001 µg/mL
IC50 (BT474 cells; [4]): 35.7 pM

B5: scFv (TCT1067)-DM1 DAR 5.5 (conjugate)
scFv: B4 scFv
IC50 μg/ml (SKBr3 cells; [5]): 0.0078 µg/mL
IC50 μg/ml (U87 cells; [6]): 0.419 µg/mL
IC50 (U87 cells; [7]): 14.9 nM

B6: scFv (TCT1067)-DM1 DAR 3.5 (conjugate)
scFv: B4 scFv
IC50 μg/ml (SKBr3 cells; [5]): 0.0417 µg/mL
IC50 (SKBr3 cells; SKBr3 Cells (HER2 +++), 96 hours, Table 50, read-out: IC50): 1.49 nM
IC50 μg/ml (U87 cells; [6]): 0.641 µg/mL
IC50 (U87 cells; [7]): 22.9 nM

B7: scFv (TCT1067)-P5C5 DAR 12.5 (conjugate)
scFv: B4 scFv
IC50 μg/ml (SKBr3 cells; SKBr3 Cells (HER2+++), 96 hours, Table 48): 0.04 µg/mL
IC50 (SKBr3 cells; SKBr3 Cells (HER2+++), 96 hours, Table 48, read-out: IC50): 1.42 nM
IC50 μg/ml (BT474 cells; BT474 Cells (HER2++), 96 hours, Table 48): 0.3 µg/mL
IC50 (BT474 cells; BT474 Cells (HER2++), 96 hours, Table 48, read-out: IC50): 10700 pM
